Assay [1] concerns the target T1, mouse TIGIT overexpressed on CHO cells (mouse, UniProt P86176 29-249).
T1 construct: whole, on cells; also called CHO-muTIGIT cells
T1 sequence (looked up): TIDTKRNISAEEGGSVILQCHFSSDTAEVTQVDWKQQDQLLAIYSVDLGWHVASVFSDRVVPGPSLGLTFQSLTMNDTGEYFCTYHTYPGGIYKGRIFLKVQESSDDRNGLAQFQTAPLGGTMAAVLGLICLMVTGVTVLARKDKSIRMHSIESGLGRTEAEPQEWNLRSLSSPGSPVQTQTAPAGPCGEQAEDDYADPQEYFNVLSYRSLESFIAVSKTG
Briefly: flow cytometry, competition with mouse CD155-mouse IgG2a Fc (2 ug/mL) on CHO-muTIGIT cells. How it is done:
(§1) The CHO-muTIGIT cells were expanded and adjusted to a cell density of 2×10⁶ cells/mL, added to a 96-well flow plate at 100 μL/well, and centrifuged for later use. The purified antibodies were diluted 3-fold with PBS starting at 400 nM for a total of 12 concentration gradients. […] APC-conjugated goat anti-mouse IgG antibody diluted 100-fold with PBS was added at 100 μL/well, incubated at 4° C. for 30 minutes, and washed twice with PBS. Cells were resuspended with PBS at 100 μL/well, and detected on a CytoFlex flow cytometer, and the corresponding MFI was calculated. Graphpad software was used for graphing analysis to obtain IC₅₀ values.

In assay [2] the target is T1, mouse TIGIT overexpressed on CHO cells. Briefly: flow cytometry blocking assay: binding of mouse CD155 protein with mouse IgG2a Fc tag to CHO cells overexpressing mouse TIGIT, median fluorescence intensity APC-A; unit from the concentration axis. As to the method:
as §1

The target in assay [3] is T2, human TIGIT expressed on cells (human, UniProt Q495A1 22-244).
T2 construct: whole, on cells; cDNA encoding human TIGIT in pCHO1.0 for CHO cells; also called CHO-huTIGIT cells
T2 sequence (looked up): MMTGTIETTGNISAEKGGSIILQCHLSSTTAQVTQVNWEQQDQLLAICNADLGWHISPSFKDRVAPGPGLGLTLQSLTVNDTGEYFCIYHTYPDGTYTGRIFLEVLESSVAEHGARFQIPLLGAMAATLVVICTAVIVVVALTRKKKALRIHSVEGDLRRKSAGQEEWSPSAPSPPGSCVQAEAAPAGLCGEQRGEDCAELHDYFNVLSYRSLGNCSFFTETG
Nature of the assay: flow cytometry blocking assay: binding of human CD155 protein with mouse IgG2a Fc tag to CHO cells overexpressing human TIGIT, median fluorescence intensity APC-A; unit from the concentration axis. How it is done:
as §1, with “Specifically, the CHO-huTIGIT” for “The CHO-muTIGIT”, “purified monoclonal” for “purified”, “gradients. The diluted sample was added at 60 μL/well to the cells-carrying 96-well flow plate, and incubated at 4° C. for 30 minutes.” for “gradients.”, “calculated.” for “calculated. Graphpad software was used for graphing analysis to obtain IC₅₀ values.”

Assay [4] addresses T3, cynomolgus TIGIT overexpressed on CHO cells (cynomolgus, UniProt A0A7N9I9V4 89-312).
T3 construct: whole, on cells; also called CHO-cynoTIGIT cells
Briefly: flow cytometry, CHO-cynoTIGIT cells. The source says: Specifically, CHO cells overexpressing human TIGIT (CHO-huTIGIT cells), CHO cells overexpressing cynomolgus TIGIT (CHO-cynoTIGIT cells) and CHO cells overexpressing mouse TIGIT (CHO-muTIGIT cells) were generated by transfection of the pCHO1.0 vector (purchased from Invitrogen) with cDNA encoding human TIGIT, cynomolgus TIGIT and mouse TIGIT cloned into the multiple cloning site (MCS), respectively, followed by pressure screening. The overexpressing cells were expanded and adjusted to an appropriate cell density, and added to a 96-well flow cytometry plate. After centrifugation, the cells were added with a gradiently diluted sample to be tested, and incubated at 4° C. for 30 minutes. The cells were washed twice with PBS, and added with a fluorescent secondary antibody correspondingly diluted to an appropriate concentration, then incubated at 4° C. for 30 minutes, and washed twice with PBS. Cells were resuspended with PBS, and detected on a CytoFlex flow cytometer, and the corresponding MFI was calculated. Graphpad software was used for graphical analysis to obtain EC₅₀ values.

In assay [5] the target is T2, human TIGIT expressed on cells. Nature of the assay: flow cytometry, competition with human CD155-mouse IgG2a Fc (2 ug/mL) on CHO-huTIGIT cells. How it is done: as §1, with “Specifically, the CHO-huTIGIT” for “The CHO-muTIGIT”, “purified monoclonal” for “purified”, “gradients. The diluted sample was added at 60 μL/well to the cells-carrying 96-well flow plate, and incubated at 4° C. for 30 minutes.” for “gradients.”, “calculated.” for “calculated. Graphpad software was used for graphing analysis to obtain IC₅₀ values.”

In US20250223354A1 (BIOTHEUS, published 2025) one finds IC50 and EC50 data, which are given here for two molecules.

T3 sequence (A0A7N9I9V4 entry or part of it): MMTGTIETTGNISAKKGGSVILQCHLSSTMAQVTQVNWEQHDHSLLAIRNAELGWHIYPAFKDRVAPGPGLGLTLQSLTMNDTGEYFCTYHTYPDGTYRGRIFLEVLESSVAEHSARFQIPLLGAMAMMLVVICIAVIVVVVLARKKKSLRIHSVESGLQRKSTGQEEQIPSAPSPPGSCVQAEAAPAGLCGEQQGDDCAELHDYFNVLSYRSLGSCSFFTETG

B1: anti-TIGIT monoclonal antibody 55796-G1 (antibody, V domains shown)
VH: QLQLQESGPGLVKPAETLSLTCTVSGGSISSYDHYWTWIRQPPGKGLEWIGTVYYSGSTFHNPSLKSRVTIPVDTSKNQFSLKLSSVTAADTAVYYCARVGPDVSHPPFDYWGQGTLVTVSS
VL: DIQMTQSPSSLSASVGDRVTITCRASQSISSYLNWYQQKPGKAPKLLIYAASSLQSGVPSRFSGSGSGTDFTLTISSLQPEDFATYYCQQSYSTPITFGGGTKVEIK
notes: Wild-type human IgG1 heavy chain constant region, human kappa light chain constant region
As to B1, the IC50 in assay [1] worked out at 1.5 nM; in assay [2], 1.5 nM; in assay [3] it was 0.236 nM; in assay [5] it was 0.24 nM. For the same molecule, the EC50 in assay [4] was 1.32 nM.

B2: anti-TIGIT monoclonal antibody 55796-G1LALA (antibody, V domains shown)
VH: QLQLQESGPGLVKPAETLSLTCTVSGGSISSYDHYWTWIRQPPGKGLEWIGTVYYSGSTFHNPSLKSRVTIPVDTSKNQFSLKLSSVTAADTAVYYCARVGPDVSHPPFDYWGQGTLVTVSS
VL: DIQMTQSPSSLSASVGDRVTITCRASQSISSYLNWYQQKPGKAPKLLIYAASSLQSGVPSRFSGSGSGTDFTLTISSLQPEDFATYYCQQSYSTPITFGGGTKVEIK
notes: Human IgG1 heavy chain constant region modified by L234A, L235A; human kappa light chain constant region; HEK293
Regarding B2, the IC50 in assay [1] amounted to 1.56 nM; in assay [2] it was 1.56 nM; in assay [3] it was 0.373 nM; in assay [5], 0.37 nM. Moreover, the EC50 in assay [4] was 1.34 nM.
